Reference: patent US20240294623A1 (SCHOLAR ROCK, published 2024)

Assays:
mLRRC33-proTGFβ1 = mLRRC33-proTGFβ1 (murine, UniProt Q8BMT4 20-651); experiment: MSD-SET
hLTBP1-proTGFβ1 [1] = molecular target: T1, hLTBP1-proTGFβ1 (human, UniProt Q14766 347-1721; P01137 30-390, limits assumed); experiment: MSD-SET
T1 construct: Large latent complex (LLC): proTGFβ1 dimer disulfide-linked to one presenting molecule; recombinant, purified, biotinylated in BLI/SPR; The same id is used for the complex made by transfected cells in the reporter assays; also called human LTBP1-proTGFβ1 complex; LTBP1-ProTGFb1

hLTBP3-proTGFβ1 [2] = molecular target: T2, hLTBP3-proTGFβ1 (human, UniProt Q9NS15 44-1303; P01137 30-390, limits assumed); experiment: MSD-SET
T2 construct: LLC as m1; Same id used for the cell-made complex in reporter assays; also called human LTBP3-proTGFβ1 complex; LTBP3-ProTGFb1

hGARP-proTGFβ1 [3] = molecular target: T3, hGARP-proTGFβ1 (human, UniProt Q14392 18-627; P01137 30-390, limits assumed); experiment: MSD-SET
T3 construct: LLC as m1; Same id used for the cell-surface complex in reporter assays; also called human GARP-proTGFβ1 complex; GARP-ProTGFb1

hLRRC33-proTGFβ1 [4] = molecular target: T4, hLRRC33-proTGFβ1 (human, UniProt Q86YC3 19-650; P01137 30-390, limits assumed); experiment: MSD-SET
T4 construct: LLC as m1; Same id used for the cell-surface complex in reporter assays; also called human LRRC33-proTGFβ1 complex; LRRC33-ProTGFb1

mLTBP1-proTGFβ1 = molecular target: T5, mLTBP1-proTGFβ1 (mouse); experiment: MSD-SET
T5 construct: Murine LLC; also called murine LTBP1-proTGFβ1 complex

mLTBP3-proTGFβ1 = molecular target: T6, mLTBP3-proTGFβ1 (mouse); experiment: MSD-SET
T6 construct: Murine LLC; also called murine LTBP3-proTGFβ1 complex

mGARP-proTGFβ1 = molecular target: T7, mGARP-proTGFβ1 (mouse); experiment: MSD-SET
T7 construct: Murine LLC; also called murine GARP-proTGFβ1 complex

hLTBP1-proTGFβ1 [5] = molecular target: T1, hLTBP1-proTGFβ1; experiment: BLI (Octet)
hLTBP3-proTGFβ1 [6] = molecular target: T2, hLTBP3-proTGFβ1; experiment: BLI (Octet)
hGARP-proTGFβ1 [7] = molecular target: T3, hGARP-proTGFβ1; experiment: BLI (Octet)
hLRRC33-proTGFβ1 [8] = molecular target: T4, hLRRC33-proTGFβ1; experiment: BLI (Octet)
hLTBP1-proTGFβ1 [9] = molecular target: T1, hLTBP1-proTGFβ1; experiment: MSD-SET, hIgG4
Procedure: (§1) For solution equilibrium titration-based binding assays, protein complexes that comprise one of the presenting molecules such as those shown above may be employed as antigen (presenting molecule-TGFβ1 complex, or an LLC). Test antibodies are allowed to form antigen-antibody complex in solution. Antigen-antibody reaction mixtures are incubated to allow an equilibrium to be reached; the amount of the antigen-antibody complex present in the assay reactions can be measured by suitable means well known in the art. As compared to BLI-based assays, SET-based assays are less affected by on/off rates of the antigen-antibody complex, allowing sensitive detection of very high affinity interactions.

hLTBP3-proTGFβ1 [10] = molecular target: T2, hLTBP3-proTGFβ1; experiment: MSD-SET, hIgG4
Procedure: as §1

hGARP-proTGFβ1 [11] = molecular target: T3, hGARP-proTGFβ1; experiment: MSD-SET, hIgG4
Procedure: as §1

hLRRC33-proTGFβ1 [12] = molecular target: T4, hLRRC33-proTGFβ1; experiment: MSD-SET, hIgG4
Procedure: as §1

T1 sequence (Q14766 347-1721 limits assumed, chain 1 of 2): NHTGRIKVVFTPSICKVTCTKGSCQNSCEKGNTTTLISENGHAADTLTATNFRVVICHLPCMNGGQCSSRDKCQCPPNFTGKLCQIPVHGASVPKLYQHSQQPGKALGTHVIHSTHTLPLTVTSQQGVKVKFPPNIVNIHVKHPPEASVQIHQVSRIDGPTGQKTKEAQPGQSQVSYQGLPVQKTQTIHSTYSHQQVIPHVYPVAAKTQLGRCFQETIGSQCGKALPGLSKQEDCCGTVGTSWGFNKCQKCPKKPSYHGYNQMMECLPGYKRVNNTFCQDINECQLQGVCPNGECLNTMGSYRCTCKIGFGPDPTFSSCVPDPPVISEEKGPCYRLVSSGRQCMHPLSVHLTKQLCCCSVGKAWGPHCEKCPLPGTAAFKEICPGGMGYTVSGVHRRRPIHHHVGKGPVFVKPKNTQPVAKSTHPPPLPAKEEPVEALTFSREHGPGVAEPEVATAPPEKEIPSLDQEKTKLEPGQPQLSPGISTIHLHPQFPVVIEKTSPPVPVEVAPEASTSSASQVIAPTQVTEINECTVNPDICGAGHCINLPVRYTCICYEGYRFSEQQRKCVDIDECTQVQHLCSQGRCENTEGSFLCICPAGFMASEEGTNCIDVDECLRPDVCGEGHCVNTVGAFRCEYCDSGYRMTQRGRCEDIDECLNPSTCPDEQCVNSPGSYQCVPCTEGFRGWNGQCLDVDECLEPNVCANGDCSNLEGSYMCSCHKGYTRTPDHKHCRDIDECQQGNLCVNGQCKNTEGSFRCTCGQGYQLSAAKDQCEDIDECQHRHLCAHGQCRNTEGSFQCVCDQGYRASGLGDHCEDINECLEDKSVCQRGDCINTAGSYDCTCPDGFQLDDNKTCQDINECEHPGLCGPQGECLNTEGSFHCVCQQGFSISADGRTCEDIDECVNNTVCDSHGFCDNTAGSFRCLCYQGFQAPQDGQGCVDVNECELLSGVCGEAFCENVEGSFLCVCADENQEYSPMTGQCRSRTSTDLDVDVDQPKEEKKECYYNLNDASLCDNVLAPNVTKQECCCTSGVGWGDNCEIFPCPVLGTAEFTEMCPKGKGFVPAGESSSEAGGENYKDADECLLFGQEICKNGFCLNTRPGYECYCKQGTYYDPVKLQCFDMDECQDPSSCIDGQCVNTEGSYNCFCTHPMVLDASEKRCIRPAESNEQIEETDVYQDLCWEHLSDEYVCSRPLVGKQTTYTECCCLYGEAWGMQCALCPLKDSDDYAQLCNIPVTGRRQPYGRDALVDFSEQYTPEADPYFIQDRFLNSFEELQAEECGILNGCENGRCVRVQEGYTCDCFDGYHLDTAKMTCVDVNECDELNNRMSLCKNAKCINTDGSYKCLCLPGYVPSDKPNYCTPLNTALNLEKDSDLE
T1 sequence (P01137 30-390 limits assumed, chain 2 of 2): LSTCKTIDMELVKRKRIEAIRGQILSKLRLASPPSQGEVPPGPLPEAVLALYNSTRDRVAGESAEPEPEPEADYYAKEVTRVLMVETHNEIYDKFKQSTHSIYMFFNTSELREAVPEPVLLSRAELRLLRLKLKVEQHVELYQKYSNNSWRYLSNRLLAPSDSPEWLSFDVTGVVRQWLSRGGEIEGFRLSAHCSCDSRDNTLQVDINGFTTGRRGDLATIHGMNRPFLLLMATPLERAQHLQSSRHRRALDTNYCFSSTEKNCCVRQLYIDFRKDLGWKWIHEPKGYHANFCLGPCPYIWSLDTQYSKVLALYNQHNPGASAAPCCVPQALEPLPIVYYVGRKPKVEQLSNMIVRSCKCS
T2 sequence (Q9NS15 44-1303 limits assumed, chain 1 of 2): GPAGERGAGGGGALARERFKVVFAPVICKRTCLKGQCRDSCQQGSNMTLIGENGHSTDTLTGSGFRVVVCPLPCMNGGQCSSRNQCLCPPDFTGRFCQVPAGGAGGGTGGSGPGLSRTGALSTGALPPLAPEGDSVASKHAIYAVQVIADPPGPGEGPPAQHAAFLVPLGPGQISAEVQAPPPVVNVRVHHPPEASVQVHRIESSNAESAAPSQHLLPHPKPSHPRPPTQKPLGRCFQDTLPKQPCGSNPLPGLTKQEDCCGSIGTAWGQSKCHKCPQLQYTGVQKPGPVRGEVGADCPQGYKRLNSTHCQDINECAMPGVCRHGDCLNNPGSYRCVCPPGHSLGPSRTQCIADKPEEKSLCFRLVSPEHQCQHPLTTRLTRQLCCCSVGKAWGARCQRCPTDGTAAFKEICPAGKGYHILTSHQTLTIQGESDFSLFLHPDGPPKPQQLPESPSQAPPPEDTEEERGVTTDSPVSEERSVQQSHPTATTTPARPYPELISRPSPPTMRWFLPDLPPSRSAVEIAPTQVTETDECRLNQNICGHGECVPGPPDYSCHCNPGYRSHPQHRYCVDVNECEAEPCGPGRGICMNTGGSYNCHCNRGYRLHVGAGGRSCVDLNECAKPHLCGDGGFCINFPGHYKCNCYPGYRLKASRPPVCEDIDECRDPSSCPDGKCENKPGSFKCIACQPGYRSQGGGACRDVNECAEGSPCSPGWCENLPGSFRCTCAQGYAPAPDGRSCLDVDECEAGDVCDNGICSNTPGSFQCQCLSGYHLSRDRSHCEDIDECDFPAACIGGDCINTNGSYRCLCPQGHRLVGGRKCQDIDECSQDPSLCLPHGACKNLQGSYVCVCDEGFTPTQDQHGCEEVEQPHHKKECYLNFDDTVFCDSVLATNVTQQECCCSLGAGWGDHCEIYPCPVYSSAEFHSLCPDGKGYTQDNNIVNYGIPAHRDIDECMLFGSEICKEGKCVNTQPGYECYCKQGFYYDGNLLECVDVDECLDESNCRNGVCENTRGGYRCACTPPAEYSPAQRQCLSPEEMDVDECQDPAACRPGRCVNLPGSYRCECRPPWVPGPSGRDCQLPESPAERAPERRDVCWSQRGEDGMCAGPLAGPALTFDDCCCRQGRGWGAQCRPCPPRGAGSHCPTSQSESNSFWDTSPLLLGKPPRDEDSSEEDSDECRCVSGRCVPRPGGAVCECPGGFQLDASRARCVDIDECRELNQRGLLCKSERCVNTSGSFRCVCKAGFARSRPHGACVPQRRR
T2 sequence (P01137 30-390 limits assumed, chain 2 of 2): as the sequence (P01137 30-390 limits assumed, chain 2 of 2) above
T4 sequence (Q86YC3 19-650 limits assumed, chain 1 of 2): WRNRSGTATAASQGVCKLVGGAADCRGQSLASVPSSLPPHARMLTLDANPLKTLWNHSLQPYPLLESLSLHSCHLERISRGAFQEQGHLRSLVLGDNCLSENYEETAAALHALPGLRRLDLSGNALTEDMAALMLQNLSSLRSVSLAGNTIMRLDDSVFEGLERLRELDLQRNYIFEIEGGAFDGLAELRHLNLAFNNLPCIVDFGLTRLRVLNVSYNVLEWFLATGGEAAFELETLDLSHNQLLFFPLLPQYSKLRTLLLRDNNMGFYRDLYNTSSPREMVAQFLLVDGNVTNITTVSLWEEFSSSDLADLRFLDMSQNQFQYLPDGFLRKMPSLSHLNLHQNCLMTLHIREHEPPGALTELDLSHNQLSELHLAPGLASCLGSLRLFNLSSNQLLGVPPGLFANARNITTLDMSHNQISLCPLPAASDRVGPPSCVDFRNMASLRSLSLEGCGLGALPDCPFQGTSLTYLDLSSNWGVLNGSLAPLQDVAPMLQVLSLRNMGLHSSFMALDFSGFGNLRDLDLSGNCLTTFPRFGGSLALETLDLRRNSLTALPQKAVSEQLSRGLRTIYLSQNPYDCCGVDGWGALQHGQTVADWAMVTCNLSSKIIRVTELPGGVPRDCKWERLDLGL
T4 sequence (P01137 30-390 limits assumed, chain 2 of 2): as the sequence (P01137 30-390 limits assumed, chain 2 of 2) above
T3 sequence (Q14392 18-627 limits assumed, chain 1 of 2): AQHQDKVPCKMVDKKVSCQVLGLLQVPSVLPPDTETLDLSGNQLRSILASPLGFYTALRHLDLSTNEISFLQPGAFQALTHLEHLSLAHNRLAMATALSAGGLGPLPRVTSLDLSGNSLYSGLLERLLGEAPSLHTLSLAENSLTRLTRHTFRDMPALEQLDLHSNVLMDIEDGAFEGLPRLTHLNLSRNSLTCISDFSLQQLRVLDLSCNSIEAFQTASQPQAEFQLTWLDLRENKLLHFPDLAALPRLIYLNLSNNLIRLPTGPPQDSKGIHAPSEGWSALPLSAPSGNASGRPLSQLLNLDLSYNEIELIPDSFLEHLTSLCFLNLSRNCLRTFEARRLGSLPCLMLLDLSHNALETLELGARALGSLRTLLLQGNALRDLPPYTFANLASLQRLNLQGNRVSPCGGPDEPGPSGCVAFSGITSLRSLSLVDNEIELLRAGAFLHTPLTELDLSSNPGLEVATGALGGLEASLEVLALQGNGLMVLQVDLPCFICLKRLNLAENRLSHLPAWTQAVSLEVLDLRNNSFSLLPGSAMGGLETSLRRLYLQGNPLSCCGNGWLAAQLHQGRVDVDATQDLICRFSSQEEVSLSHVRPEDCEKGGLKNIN
T3 sequence (P01137 30-390 limits assumed, chain 2 of 2): as the sequence (P01137 30-390 limits assumed, chain 2 of 2) above
Sequence of mLRRC33-proTGFβ1 (Q8BMT4 20-651): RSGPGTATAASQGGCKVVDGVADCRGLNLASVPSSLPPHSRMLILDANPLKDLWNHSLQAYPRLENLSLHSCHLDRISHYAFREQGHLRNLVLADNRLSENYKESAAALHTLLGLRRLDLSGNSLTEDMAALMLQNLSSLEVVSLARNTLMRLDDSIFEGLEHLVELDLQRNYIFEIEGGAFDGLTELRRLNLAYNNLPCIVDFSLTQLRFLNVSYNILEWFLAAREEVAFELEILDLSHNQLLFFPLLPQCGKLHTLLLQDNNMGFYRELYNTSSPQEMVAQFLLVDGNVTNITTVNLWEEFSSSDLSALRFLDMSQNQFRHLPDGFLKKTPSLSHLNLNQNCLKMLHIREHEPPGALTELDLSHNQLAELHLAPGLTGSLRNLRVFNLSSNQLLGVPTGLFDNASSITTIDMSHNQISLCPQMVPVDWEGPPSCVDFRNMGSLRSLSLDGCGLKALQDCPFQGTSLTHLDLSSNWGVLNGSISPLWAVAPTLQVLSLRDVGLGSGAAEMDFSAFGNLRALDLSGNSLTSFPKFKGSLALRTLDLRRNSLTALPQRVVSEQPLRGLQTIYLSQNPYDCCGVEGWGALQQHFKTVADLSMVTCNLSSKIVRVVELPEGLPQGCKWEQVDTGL

- Kd (mLRRC33-proTGFβ1): 0.048 nM
- Kd (hLTBP1-proTGFβ1 [1]): 0.018 nM
- Kd (hLTBP3-proTGFβ1 [2]): 0.029 nM
- Kd (hGARP-proTGFβ1 [3]): 0.027 nM
- Kd (hLRRC33-proTGFβ1 [4]): 0.063 nM
- Kd (mLTBP1-proTGFβ1): 0.024 nM
- Kd (mLTBP3-proTGFβ1): 0.028 nM
- Kd (mGARP-proTGFβ1): 0.021 nM
- Kd (hLTBP1-proTGFβ1 [5]): 0.207 nM
- Kd (hLTBP3-proTGFβ1 [6]): 0.123 nM
- Kd (hGARP-proTGFβ1 [7]): 0.404 nM
- Kd (hLRRC33-proTGFβ1 [8]): 0.336 nM
- Kd (hLTBP1-proTGFβ1 [9]): 0.018 nM
- Kd (hLTBP3-proTGFβ1 [10]): 0.029 nM
- Kd (hGARP-proTGFβ1 [11]): 0.027 nM
- Kd (hLRRC33-proTGFβ1 [12]): 0.063 nM
B1: Ab6 (antibody, V domains shown)
VH: EVQLVESGGGLVQPGGSLRLSCTASGFTFSSFSMDWVRQAPGKGLEWVSYISPSADTIYYADSVKGRFTISRDNAKNTLYLQMNSLRAEDTAVYYCARGVLDYGDMLMPWGQGTLVTVSS
VL: DIQMTQSPSSLSASVGDRVTITCQASQDITNYLNWYQQKPGKAPKLLIYDASNLETGVPSRFSGSGSGTDFTFTISSLQPEDIATYYCQQADNHPPWTFGGGTKVEIKR
notes: Fully human IgG4/kappa
